Here are results for two substances from paper PMC3832671, “Two Homologous EF-G Proteins from Pseudomonas aeruginosa Exhibit Distinct Functions” (PLoS ONE, 2013).

Usually Km stands for the substrate concentration at which the rate is half of its maximum. In general, kcat refers to the number of substrate molecules converted per active site and unit of time at saturation. In general, kcat/Km refers to the second-order rate constant that governs catalysis at low substrate concentration.

For data set [1], the system named is T1, Nc1nc2c(ncn2[C@@H]2O[C@H](COP(=O)(O)OP(=O)(O)OP(=O)(O)O)[C@@H](O)[C@H]2O)c(=O)[nH]1.
T1 construct: full length (706 residues) with N-terminal 6xHis tag from pET-28b(+), NheI/HindIII; expressed in E. coli Rosetta 2(DE3); about 77 kDa
The data set can be described thus: ribosome-dependent GTPase, colorimetric Pi release, Lineweaver-Burk. The data set is classed as biochemical, Pseudomonas aeruginosa. The conditions noted are these: P. aeruginosa ribosomes 0.4 μM, EF-G1A 1.0 μM, 10 mM MgCl2, 70 mM NH4Cl, pH 7.5, kcat is kcat^obs. The source says:
ribosome-dependent GTPase, colorimetric Pi release, Lineweaver-Burk on EF-G1A

Data set [2] relates to T2, Nc1nc2c(ncn2[C@@H]2O[C@H](COP(=O)(O)OP(=O)(O)OP(=O)(O)O)[C@@H](O)[C@H]2O)c(=O)[nH]1.
T2 construct: full length (702 residues) with N-terminal 6xHis tag from pET-28b(+), NheI/HindIII; expressed in E. coli Rosetta 2(DE3); about 77 kDa
The data set is described as above. The data set is classed as biochemical, Pseudomonas aeruginosa. To be noted: P. aeruginosa ribosomes 0.4 μM, EF-G1B 0.3 μM, 10 mM MgCl2, 70 mM NH4Cl, pH 7.5, 37 °C, kcat is kcat^obs, text b30 prints 71 μM. From the text: ribosome-dependent GTPase, colorimetric Pi release, Lineweaver-Burk on EF-G1B

In the case of EF-G1A (Pseudomonas aeruginosa PAO1), in data set [1], the Km stood at 85 µM, the kcat was determined as 0.04 s⁻¹ and the kcat/Km was 500 M⁻¹ s⁻¹.
As to EF-G1B (Pseudomonas aeruginosa PAO1), in data set [2], the Km amounted to 70 µM, the kcat was determined as 0.2 s⁻¹ and the kcat/Km is 3000 M⁻¹ s⁻¹.
